According to patent US20200199567A1, “METHODS FOR SELECTION AND EXPANSION OF T CELLS EXPRESSING PD-1” (MEDIMMUNE, LLC, priority 2018, published 2020):

How the values were obtained:
[1] = test system: PD-1 expression in peripheral blood; test: PD-1 expression in peripheral blood after anti-CTLA-4 pre-treatment, Taqman qRT-PCR; type: in vivo, human
Experimental: The effect of anti-CTLA-4 antibody (tremelimumab) pre-treatment on PD-1 expression in peripheral blood was tested by Taqman qRT-PCR.

[2] = test system: PD-1 expressing T cells; test: Magnetic bead enrichment (selection) of PD-1 expressing T cells with biotinylated anti-PD-1 antibody; type: cell-based, human; details: 4° C.
Experimental: Donor blood was obtained in the form of human peripheral blood through standard leukapheresis or blood draw protocols. The red blood cells were removed from the donor blood by centrifugation protocols known in the art. Briefly, the peripheral blood was centrifuged, the supernatant discarded, the pellet was resuspended in ammonium chloride potassium (ACK) buffer, the ACK pellet suspension was incubated at room temperature, and the cells were washed twice in wash buffer to produce a cell pellet.
Enrichment of the PD-1 expressing cells was then performed. The washed cell pellet was resuspended in wash buffer and cell count determined. Wash buffer was added to bring the cell density to 100×10^6 cells per mL. 1 μg/mL MEDI3097 antibody was added to the cells to produce an antibody-cell mixture comprising cells and MEDI3097 antibody. The antibody mixture was incubated at 4° C. for 15 minutes and then centrifuged and washed twice with wash buffer. Wash buffer was added to bring cell density to 125×10^6 cells per mL. Anti-biotin beads were then added to the cells at a concentration of 2 mL beads per 1 billion cells to produce a bead mixture. […]
Enrichment of PD-1 expressing T cells was performed after red blood cells were removed from leukapheresis products. The washed cell pellet was resuspended in wash buffer and cell count determined. […]

[3] = target: PD-1 (Homo sapiens, UniProt Q15116); test: Binding affinity of anti-PD-1 antibody
Chain of PD-1 (Q15116 25-288): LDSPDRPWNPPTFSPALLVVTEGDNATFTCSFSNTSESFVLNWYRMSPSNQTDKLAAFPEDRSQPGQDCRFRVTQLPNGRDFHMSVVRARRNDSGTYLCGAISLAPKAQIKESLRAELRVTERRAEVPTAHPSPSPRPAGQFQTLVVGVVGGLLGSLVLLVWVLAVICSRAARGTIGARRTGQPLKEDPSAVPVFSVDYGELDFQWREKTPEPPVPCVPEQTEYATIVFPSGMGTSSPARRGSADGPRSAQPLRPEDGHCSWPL

tremelimumab: anti-CTLA-4 antibody
overall survival (OS) of patients with induced PD-1 expression ([1]; high responder group versus <1.5 fold group, clinical trial NTC02527434): improved overall survival | increase PD-1 expression in peripheral blood ([1]; in a group of patients, after 9-10 days): > 1.5 fold

B1: MEDI0680: anti-PD-1 antibody (antibody, V domains shown)
VH: EVQLVESGGGLVQPGGSLRLSCAASGFTFSDYGMHWVRQAPGKGLEWVAYISSGSYTIYSADSVKGRFTISRDNAKNTLYLQMSSLRAEDTAVYYCARRGYGSFYEYYFDYWGQGTTVTVSS
VL: QIVLTQSPATLSLSPGERATLSCSASSSVSYMYWYQQKPGQAPRLLIYLTSNRATGIPARFSGSGSGTDYSSTLTISSLEPEDFAVYYCQQWSSNPFTFGQGTKLEIK
antibody concentration at which impact on PD-1 expression level plateaued [2]: around 5.0 μg/mL | binding affinity [3]: low binding affinity

B2: LO115: anti-PD-1 antibody (antibody)
heavy: EVQLVESGGGLVQPGGSLRLSCAASGFTFSDYGMHWVRQAPGKGLEWVAYISSGSYTIYSADSVKGRFTISRDNAKNSLYLQMNSLRAEDTAVYYCARRAPNSFYEYYFDYWGQGTTVTVSSASTKGPSVFPLAPSSKSTSGGTAALGCLVKDYFPEPVTVSWNSGALTSGVHTFPAVLQSSGLYSLSSVVTVPSSSLGTQTYICNVNHKPSNTKVDKRVEPKSCDKTHTCPPCPAPEFEGGPSVFLFPPKPKDTLMISRTPEVTCVVVDVSHEDPEVKFNWYVDGVEVHNAKTKPREEQYNSTYRVVSVLTVLHQDWLNGKEYKCKVSNKALPASIEKTISKAKGQPREPQVCTLPPSREEMTKNQVSLSCAVKGFYPSDIAVEWESNGQPENNYKTTPPVLDSDGSFFLVSKLTVDKSRWQQGNVFSCSVMHEALHNHYTQKSLSLSPGK
light: QIVLTQSPATLSLSPGERATLSCSASSKHTNLYWSRHMYWYQQKPGQAPRLLIYLTSNRATGIPARFSGSGSGTDFTLTISSLEPEDFAVYYCQQWSSNPFTFGQGTKLEIKRTVAAPSVFIFPPSDEQLKSGTASVVCLLNNFYPREAKVQWKVDNALQSGNSQESVTEQDSKDSTYSLSSTLTLSKADYEKHK
binding affinity [3]: high binding affinity
